Experimental data published in publication PMC7416497.

Molecular target: T1, ETS1 ΔN279 (UniProt P14921 279-441)
T1 sequence: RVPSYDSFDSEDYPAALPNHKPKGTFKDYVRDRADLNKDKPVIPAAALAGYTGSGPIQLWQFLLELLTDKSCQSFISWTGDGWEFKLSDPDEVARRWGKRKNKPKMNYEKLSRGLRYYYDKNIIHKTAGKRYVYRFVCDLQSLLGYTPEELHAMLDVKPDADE
Assay: EMSA

B1: SC1 (dsDNA)
DNA 1: TCGACGGCCAAGCCGGAAGTGAGTGCC
DNA 2: TCGAGGCACTCACTTCCGGCTTGGCCG
Kd: 0.4 nM
